Substrate in this series: NCCc1cc2oc(=O)ccc2cc1N
Nature of the series: purified protein, by the assay type.

Like-named read-outs stand apart in the source and are kept apart here.

B1: MAO-A (Homo sapiens) (protein)
chain: MENQEKASIAGHMFDVVVIGGGISGLSAAKLLTEYGVSVLVLEARDRVGGRTYTIRNEHVDYVDVGGAYVGPTQNRILRLSKELGIETYKVNVSERLVQYVKGKTYPFRGAFPPVWNPIAYLDYNNLWRTIDNMGKEIPTDAPWEAQHADKWDKMTMKELIDKICWTKTARRFAYLFVNINVTSEPHEVSALWFLWYVKQCGGTTRIFSVTNGGQERKFVGGSGQVSERIMDLLGDQVKLNHPVTHVDQSSDNIIIETLNHEHYECKYVINAIPPTLTAKIHFRPELPAERNQLIQRLPMGAVIKCMMYYKEAFWKKKDYCGCMIIEDEDAPISITLDDTKPDGSLPAIMGFILARKADRLAKLHKEIRKKKICELYAKVLGSQEALHPVHYEEKNWCEEQYSGGCYTAYFPPGIMTQYGRVIRQPVGRIFFAGTETATKWSGYMEGAVEAGERAAREVLNGLGKVTEKDIWVQEPESKDVPAVEITHTFWERNLPSVSGLLKIIGFSTSVTALGFVLYKYKLLPRS
For B1, the Km stood at 30.9 ± 1.8 µM. For the same protein, where the note is “pH 7.4”, the Km worked out at 31 µM.

B2: MAO-B (Bos taurus) (protein)
chain: MSSKCDVVVVGGGISGMAAAKLLHDSGLNVIVLEARDRVGGRTYTLRNQKVKYVDLGGSYVGPTQNHILRLSKELGLETYKVNEVERLIHHTKGKSYPFRGSFPSVWNPITYLDHNNLWRTMDDMGREIPSDAPWKAPLAEQWDLMTMKELLDKICWTESSKQLAILFVNLCVTAEIHEVSALWFLWYVKQCGGTTRIFSTSNGGQERKFVGGSGQVSERIMDLLGDRVKLERPVIHIDQTGENVLVETLNHELYEAKYVISAVPPVLGMKIHFNPPLPMMRNQLITRVPLGSVIKSIVYYKEPFWRNMDYCGSMIIEGEEAPVAYALDDTKPDGSYPAIIGFILAHKARKLARLTKEERLKKLCDLYAKVLGSQEALHPVHYEEKNWCEEQYSGGCYTSYFPPGIMTQYGRVLRQPVGRIYFAGTETATHWSGYMEGAVEAGERAAREILHAMGKIPEDEIWLPEPESVDVPAKPITTTFLQRHLPSVPGLLKLIGLTTIFSATALGFLAHKRGLLVRI
Regarding B2, the Km turned out to be 510 ± 40 µM. Further, for the setting “pH 7.4”, the Michaelis constant (Km) worked out at 13 µM.

The values above are taken from patent US20080194522A1, “Development of Fluorogenic Substrates For Monoamine Oxidases (Mao-A and Mao-B)” (priority 2004, published 2008).
